A word on the stoichiometry N: it is the number of molecules, sites or subunits per partner or assembly.

The target in assay [1] is SgcE10, chymotrypsin digested (crystallised form) (Streptomyces globisporus). The assay is described as follows: crystal structure.
For assay [2], the target named is SgcE10, thioesterase (TE) of the 9-membered enediyne C-1027 biosynthetic machinery (Streptomyces globisporus). The assay is described as follows: SEC. Background: SEC sorts molecules by how far they enter the pores of the column.

On to “SgcE10, chymotrypsin digested (crystallised form) (enzyme)”, for which the stoichiometry N in assay [1] stood at 4.
The substance “SgcE10, thioesterase (TE) of the 9-membered enediyne C-1027 biosynthetic machinery (enzyme)” had a stoichiometry N in assay [2] of 4.

The values are drawn from publication PMC5579567.
